For assay [1], the target named is genome-edited CXCL12-HiBiT (human (endogenous in HEK293)) (UniProt P48061). Description: split reporter (BiFC, NanoBiT); NLuc complementation luminescence: live HEK293 cells expressing genome-edited CXCL12-HiBiT incubated with increasing concentrations of purified LgBiT; vehicle. (The HiBiT peptide binds its large partner to form an active luciferase.)
The target is the same in assay [2]. The experiment in a line: split reporter (BiFC, NanoBiT); NLuc complementation luminescence: live HEK293 cells expressing genome-edited CXCL12-HiBiT incubated with increasing concentrations of purified LgBiT; with surfen (10 uM).
Assay [3] shares this target. The experiment in a line: split reporter (BiFC, NanoBiT); NLuc complementation luminescence: supernatants from HEK293 cells expressing genome-edited CXCL12-HiBiT incubated with increasing concentrations of purified LgBiT; with surfen (10 uM).
The target of a further assay is purified HiBiT. The experiment in a line: split reporter (BiFC, NanoBiT); NLuc complementation luminescence: purified HiBiT (1 nM) incubated with increasing concentrations of purified LgBiT; vehicle.
In assay [4] the target is genome-edited CXCL12-HiBiT (human (endogenous in HEK293)) (UniProt P48061). The experiment in a line: split reporter (BiFC, NanoBiT); NLuc complementation luminescence: supernatants from HEK293 cells expressing genome-edited CXCL12-HiBiT incubated with increasing concentrations of purified LgBiT; with heparan sulfate (30 ug/mL).
Assay [5] has the same target. Description: split reporter (BiFC, NanoBiT); NLuc complementation luminescence: supernatants from HEK293 cells expressing genome-edited CXCL12-HiBiT incubated with increasing concentrations of purified LgBiT; vehicle.

The record followed here is publication PMC7809502.

Turning to LgBiT (18 kDa NLuc fragment), the Kd is 11.6 nM in assay [1]; 5.93 nM in assay [2]; 7.46 nM in assay [3]; 7.15 nM with purified HiBiT; 16.1 nM in assay [4]; 17.5 nM in assay [5].

Usually Kd stands for a measure of binding affinity in units of concentration.
